Source: the nanobody polyreactivity screen of Harvey et al. (2022)

Assay: yeast display, Sf9 membrane polyspecificity reagent, FACS + sequencing; frameworks hold sequencing errors
How it was run: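 Using colony PCR, genes from sorted yeast display clones were amplified, then sequenced on MiSeq at 2 × 250 and filtered by CDR length. The clones had been stained with 10% biotinylated, detergent-solubilized Sf9 membrane reagent for 1 hour at 4 °C and sorted by FACS into low and high (top ~1%) gates on anti-HA and streptavidin fluorescence. Polyreactivity labels come from the gate of origin.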

Row | Sequence | polyreactivity (PSR sort gate)
1 | HVQLVESGGGLVQAGGSLRLSCAASGRTLYNNAMGWYRQAPGKERELVAAISSRGGSTRYADSVKGRFTISRDNAKNTVYLQMNSLKPEDTAVYSGAKRSINRDGDYWGQGTQVTVSS | high polyreactivity
2 | HVQLVESGGGLVQAGGSLRLSCAASGSIFGHYAMGWYRQATGKERELVAAISSGGSTNYADSVKGRFTISRDNAKNTVYLQMNSLIPEDTAVYYCAPTSWWPPGYDYWGQGTQVTVSS | high polyreactivity
3 | HVQLVESGGGLVQAGGSLRLSCAASGSIFGNYVMGWYRQAPGKERELVAAISWSGGTNYADSVKGRFTISRDNAKNTVYLQMKSLKPEDTAVYYCAALSVWSYYTYYYWGQGTQVTVSS | high polyreactivity
4 | HVQLVESGGGLVQAGGSLRLSCAASGSIFNSNGMGWYRQATGKERELVAAITGGGSTNYADSVKGRFTISRDNAKNTVYLQMNSLKPEDTAVYYCAARPLRTDWAYYYWGQGTQVTVSS | low polyreactivity
5 | HVQLVESGGGLVQAGGSLRLSCAASGSIFPRYSMGRYRQAPGKEMELVAAITSGGSTYYADSVKGRFTISRDNAKNTVYLQMNSLKPEDTAVYYCAATIYRPKGGTYGWYGYDYWGQGTQVTVSS | high polyreactivity
6 | HVQLVESGGGLVQAGGSLRLSCAASGSIFSGNAMGWYRQAPGKERELVAAISYSDGSTYYADSVKGRFTISRDNAKNTVYLQMNSLKPEDTAVYYCAADGYPYTYDYWGQGTQVTVST | low polyreactivity
7 | HVQLVESGGGLVQAGGSLRLSCAASGSIYGGNTMGWYRQAPGKERELVAAISRSGGSTYYADSVKGRFTISRDNAKNTVYLQMNSLKREDTAVYYCKRKQAGHGQGYDYWGQGTQVTVSS | high polyreactivity
8 | HVQLVESGGGLVQAGGSLRLSCAASGSTFAAYAMGWYRQAPGKERELVAAITKRGGTTYYADSVKGRVTISRDHAKNSVYLQMNSLKPEDTAVYYCAKTRYYSALLHYDYDTWGQGTQVTVST | high polyreactivity
9 | HVQLVESGGGLVQAGGSLRLSCAASGSTFDVYAMGWYRQAPGKERELVAAISRSGGSTYYADSVKGRFTISRDNAKNTVYLQMNSLKPEDTAVYYCNARLARWGSYEYNYWGQGTQVTVSS | low polyreactivity
10 | HVQLVESGGGLVQAGGSLRLSCAASGSTFKRNTMGWYRQAPGKERELVAAISRSGGSTYYADSVKGRFTISRDNAKNTVYLQMNSLKPEDTAVYYCNAYVSSYVGSRSYGLSPYDYWGQGTQVTVSS | high polyreactivity
11 | HVQLVESGGGLVQAGGSLRLSCAASGSTFKRYAMGGDRQAPGKEREFVAGISWRGGSTYYADSVKGRFTISRDNAKNTVYLQMNSLKPEDTAVYFCAARSFSNIGYHGYGYWGQGTQVTVSS | high polyreactivity
12 | HVQLVESGGGLVQAGGSLRLSCAASVTFSFYAMGWYTQSPGKERELVAAISSIGDSTYYADSVKGRFTISRDNAKNTVYLQMNSLKPEETAVYYYGVIAVDAYDYYTYDYWRQGTQVTVSS | high polyreactivity
13 | HVQLVESGGGLVQAGGSLRLTCAASGFSYGYYAMGWYRQAPGKEWELVATISSGDNTYYADSVKGRFTSSRDNAKNTVYLQMNSLKPEDTAVYYCAARYPHYFVRGGYWGQGTQVTVSS | high polyreactivity
14 | HVQLVESGGGLVQAGGSLRLTCAASGLTFSSYAMGWYRQAPGKERELVADITYRGGSTYYADSVKGRFTISRDNEKNTVYLQMNSLKPEDTAVYYCAARKKYRFDYWGQGTQVTVSS | high polyreactivity
15 | HVQLVESGGGLVQARGSLRLSCAASGRTSWYYAMGWYRQAPGKEKELVAAITASGGSTYADSVKGRFTISRDNAKNTVYLEMNSLKPEDTAVYYCAAERPYSRVGYYYWGQGTQVTVSS | high polyreactivity
16 | HVQLVESGVGLVQAAGSLRLSCAASGLIFRWYAMGWYRQAPVKERELFAAISRGGSTNYADSVKGRFTISRDNAKNTVYLQMNSLKPEDTAVYYCATVYSVRYGGRYYYAFGLYDYWGQGTQVTVSS | high polyreactivity
17 | HVQLVESVGGLVQAGGSLRLRCAASGLTFRCNGMGWYRQEPGKETELVAAISSSGGSTYYADSVKGRFTISRDNAKNTVYLQLNSLKPEDTGVYFCARLVFYSQGVREMDYWGQGTQVTGSS | high polyreactivity
18 | IIQAGGSLRLSCAASGRTFSGYAMGWYRPAPGKERELIADITSGGSTYYADSVKGRFTISRDNAKNTVYLQMNSLKPEDTAVYYCNKVYPVVLYEPQYDYWGQGTQVTVSS | low polyreactivity
19 | KDQLVESGGGLVQAGGSLRLSGAASGRTFASNDMVWYRQAPGKERELVADINNGARTYYADSVKGRFTISRDNAKNTVYLQMNSLKPEDSAVYYCNARPWYWWECRYDYWGQGTQVTVSS | high polyreactivity
20 | KLQLVDSGGGLVQAGGSLRLSCAASGSTIRYYAMGWYRQAPGKERELVAAITISGGGTYADSVKGRFTISRDNAKNTVYLEMNSLKPEDTAVYYCAATYYGFLYRSIGDYWGQGTQVTVSS | low polyreactivity
21 | KVQLQESGGGLVQAGGSLRPSCAASGSITDGVPMGWDRQAPGEERELVATTVLGATTNYADSVKGRFTISRGNAKNTVYLLMNSLKPEETAVYYCAAPLRYDKGFSYWRQGTQVTVSS | low polyreactivity
22 | KVQLVESGGGIVQAGGSLRLSCAASGSTFVRNAMGWYRQAPGKERELVAGITFGGGSTYYADSVKGRFTISRDNAKNTVYLQMNSLKAEDTAVYFCAKRDYSPWPAAGYPYDYDYWGQGTQVTVSS | low polyreactivity
23 | KVQLVESGGGLVQAGGSLRISCAASGSNFGRYAMGWYRQAPGKERELVAAISARGGSTYYADSVKGRFTISRDNAKNTVYLQMNSLKPEDTAFYYCNVLVRYSDQSSDSWGQGTQVTVSS | high polyreactivity
24 | KVQLVESGGGLVQAGGSLRLSCAASGINCYYYAMGWYRQAPGKERELVAVISSSGGRTYYADSVKGRFTISRDNSKNTVYLQMNSLKPEDTAVYYCAARGYGATYDYWGQGTQVTVSS | high polyreactivity
25 | KVQLVESGGGLVQAGGSLRLSCAASGITLSYYAMGWYSQAPGKEMELVAAINRGGRTYYADSVTGRFTISRDNAKNTVYLQMNSLKPEDTAVYYCATAYASSQKYYYWGQGTQVTVSS | high polyreactivity
26 | KVQLVESGGGLVQAGGSLRLSCAASGRTFLRYAMGWYRQAPGKERELVAAISTSGGSTYYADSVKGRFTISRDNAKNTVYLQMNSLKPEDTAVYYCAATSTSYTYTHSYGYWGQGTQVTVSS | low polyreactivity
27 | KVQLVESGGGLVQAGGSLRLSCAASGSIFTHNAMGWYRQAPGKERELVAAISSGGSTNYADSVKGRFTISRDNAKNTVYLQMNSLKPEDTAVYYCAKSIDGWYWRRRRYDYWGQGTQVTVSS | low polyreactivity
28 | KVQLVESGGGLVQAGGSLRLSCAASGSIIGGYAMGWYRQAPGKVRELVAAINRSGGRTYYADSVKGRFTFSRDNAKNTVYLQMNSLKPEDTAVYYCAADNFRGKYDYLGQGTQVTVSS | high polyreactivity
29 | KVQLVESGGGLVQAGGSLRLSCAASGSTFYYYAMGWNRQAPGKERELVAVITLSGGSTYYADSVKGRFTISRDNAKNTFYLQMNSLKPEDTAVFYCAAEHWEVWNSYYYEYDYWGQGTLVTVSS | high polyreactivity
30 | KVQLVESGGGLVQAGGSLRVRCAASGFTFGVYAMGWYRQAPGKEREFVAVITWRGGRTYYADSVKGRFTISRDNAQNTVYLQMNSLKPEDTGVYYCNARPRIYLTLYYWGQGTQVSVSS | high polyreactivity
